The source of these data is the RNAGym collection of RNA variant scans (doi:10.1073/pnas.2313332121).

B1: TPR 5TU (parent)
chain: GGAUCUUCUCGAUCUAACAAAAAAGACAAAUCUGCCACAAAGCUUGAGAGCAUCUUCGGAUGCAGAGGCGGCAGCCUUCGGUGGCGCGAUAGCGCCAACGUUCUCAACUAUGACACGCAAAACGCGUGCUCCGUUGAAUGGAGUUUAUCAUG

This sample holds only a part of the variants without activity. Bounds are passed on as bounds.

Variants of B1 are the subject of the data set. Kind of data set: polymerase ribozyme fitness, log enrichment relative to wild type (log ratio); higher = more active; in vitro selection for triplet polymerase activity. The essentials:
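Fitness measures genotype enrichment against wild-type enrichment on a logarithmic scale, with inverse-variance-weighted averaging of replicates. The logarithm is base 2, and genotypes were kept only with ≥10 input reads and ≥1 read per output in Illumina sequencing. The sequenced libraries came from one triplicate in vitro selection round, including frozen incubation at −7 °C, of PCR-built, transcribed mutant libraries of each subunit of a heterodimeric triplet polymerase ribozyme.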
As to C18U C38U A39C G92U C103U, the “polymerase ribozyme fitness (log ratio)” value was not above -4.2.

As for C18U A30U G65U G84U C105U, the “polymerase ribozyme fitness (log ratio)” value is not above -4.2. Turning to C18G C38A C69G C87U G143U U145A, the “polymerase ribozyme fitness (log ratio)” value was -3.47. For A19G A97U the value was -0.98.

For the variant C18U A37G U56A C87G C103U, the “polymerase ribozyme fitness (log ratio)” value was not above -4.2. Regarding C18G A113G U134A, the “polymerase ribozyme fitness (log ratio)” value is -3.95. As to C18G A24U U55A C69U G74A, the “polymerase ribozyme fitness (log ratio)” value was -2.16. Turning to C18G U31A A120G G128U A137G, the “polymerase ribozyme fitness (log ratio)” value was -4.17.

As for A19C U109G, the “polymerase ribozyme fitness (log ratio)” value was -0.641. For the variant C18A G141C, the “polymerase ribozyme fitness (log ratio)” value is -0.603. With A19C U53A G58A, the “polymerase ribozyme fitness (log ratio)” value turned out to be 0.679. For C18G A20G G25C U33G G68U C96U A98G the value was not above -4.2; for C18U A22U C43U C95U U101G G136A A138U, not above -4.2; for A19C C129G U148G, not above -4.2. For the variant C18G G84U, the “polymerase ribozyme fitness (log ratio)” value is -1.93. For C18U A29C U78G G92A A147C, the “polymerase ribozyme fitness (log ratio)” value is not above -4.2. For C18U C36A, the “polymerase ribozyme fitness (log ratio)” value is -4.01. On to C18G U56A A73U G83C, for which the “polymerase ribozyme fitness (log ratio)” value was -3.86. C18U U55A C57G A66U U82G G94C A113U: the “polymerase ribozyme fitness (log ratio)” value is not above -4.2. Regarding A19G A49C C54A G68A C93A C95A C103U G124A, the “polymerase ribozyme fitness (log ratio)” value was not above -4.2. As for A19G A41U A66C C93U C99U A115U G140A G141C, the “polymerase ribozyme fitness (log ratio)” value was not above -4.2. Consider A19C G46A G62A G94A C95A, for which the “polymerase ribozyme fitness (log ratio)” value is not above -4.2.

Consider A19G A28G A60G G86C A107G C118U G141U, for which the “polymerase ribozyme fitness (log ratio)” value is not above -4.2. With A19G A28U A40C A60C G71U C75A G86U, the “polymerase ribozyme fitness (log ratio)” value is not above -4.2. As to A19C C27G G70A C76U G94U C103U A120U C129A U148C, the “polymerase ribozyme fitness (log ratio)” value was not above -4.2. With A19C A20C A40G U55C G71U G84A A138U U139A, the “polymerase ribozyme fitness (log ratio)” value is not above -4.2. Regarding C18U A40C A52G G86U U90C U135G, the “polymerase ribozyme fitness (log ratio)” value is not above -4.2. As to C18U A39G U53C, the “polymerase ribozyme fitness (log ratio)” value was -3.19. A19C A22G U31G C38U A107U G117A: the “polymerase ribozyme fitness (log ratio)” value was -4.16. As for A19C A22U C35A A106G, the “polymerase ribozyme fitness (log ratio)” value is -3.28. As to C18U A40C C93A, the “polymerase ribozyme fitness (log ratio)” value was -2.24.

Consider C18G A24U C76A C95U G141A, for which the “polymerase ribozyme fitness (log ratio)” value is -3.98. In the case of A19C A24G C32U C38U G59A C85A G133U U145C, the “polymerase ribozyme fitness (log ratio)” value was not above -4.2. A19C U44A: the “polymerase ribozyme fitness (log ratio)” value was -3.87.

Turning to C18A A26U G84A A138G, the “polymerase ribozyme fitness (log ratio)” value is not above -4.2. With A19G C32A A40C U61A C93G A110G, the “polymerase ribozyme fitness (log ratio)” value was not above -4.2.

As to A19C G48C C51A G86U G128U, the “polymerase ribozyme fitness (log ratio)” value is not above -4.2. Take C18U A23U A91U C95G U104C C118A A147U: the “polymerase ribozyme fitness (log ratio)” value was not above -4.2. In the case of A19C A24G C36U C57A U111G A121G, the “polymerase ribozyme fitness (log ratio)” value was not above -4.2. In the case of C18U A26U C75G G83A A122U G143A, the “polymerase ribozyme fitness (log ratio)” value was -3.81.

For A19G A47G G48A, the “polymerase ribozyme fitness (log ratio)” value was -3.23.

For the variant A19G A40U C57A U61A G100U G136U G141C, the “polymerase ribozyme fitness (log ratio)” value was not above -4.2.

In the case of A19C C27U A29C A52C G86C A137G G143U, the “polymerase ribozyme fitness (log ratio)” value is not above -4.2. Take A19C U56C C96U G133C: the “polymerase ribozyme fitness (log ratio)” value was -2.22. As for C18G C36G U78A C85A, the “polymerase ribozyme fitness (log ratio)” value was not above -4.2. In the case of C18U A21C G141A, the “polymerase ribozyme fitness (log ratio)” value was 0.0565.

As to C18U C38G A40G U61A G81C C96A U146C, the “polymerase ribozyme fitness (log ratio)” value is not above -4.2. Consider C18U G42A A73U C95U A98U C103G, for which the “polymerase ribozyme fitness (log ratio)” value was not above -4.2. With C18G A24G G50U U55A A106C C125A, the “polymerase ribozyme fitness (log ratio)” value was not above -4.2. C18U A22U U53G C96A: the “polymerase ribozyme fitness (log ratio)” value is -3.13. Turning to A19C A60C U102G U109G U151G, the “polymerase ribozyme fitness (log ratio)” value was not above -4.2. Regarding A19C G86C C99U, the “polymerase ribozyme fitness (log ratio)” value was -2.28. For C18U G140C the value was -4.17; for A19C C57U G94U, -0.554.

Consider C18G U45C C96U C116A U130C, for which the “polymerase ribozyme fitness (log ratio)” value was not above -4.2.

A19C C35G U53A C57A G92A U101C: the “polymerase ribozyme fitness (log ratio)” value is -4.13. Turning to A19G A37U U101G, the “polymerase ribozyme fitness (log ratio)” value is -2.14. On to C18G G80C, for which the “polymerase ribozyme fitness (log ratio)” value was not above -4.2.

In the case of A19G C85U G94U G141U, the “polymerase ribozyme fitness (log ratio)” value was 0.14.

Consider C18G A19U G42C G50C U90G G92U, for which the “polymerase ribozyme fitness (log ratio)” value was not above -4.2. With A19G C85A, the “polymerase ribozyme fitness (log ratio)” value was -2.09. For C18U A40C C57A G126U, the “polymerase ribozyme fitness (log ratio)” value is -0.291. Take C18A G70A G84U U130G: the “polymerase ribozyme fitness (log ratio)” value was not above -4.2.

In the case of A19C G83U C87U, the “polymerase ribozyme fitness (log ratio)” value is -0.445.

Take C18U C96G U127C G143A: the “polymerase ribozyme fitness (log ratio)” value was -4.17. As to C18U C93U G133U, the “polymerase ribozyme fitness (log ratio)” value was not above -4.2. In the case of C18U A37U U144A, the “polymerase ribozyme fitness (log ratio)” value is -1.92. Consider A19G A47C C57A C96U U101G C123U U145A, for which the “polymerase ribozyme fitness (log ratio)” value was -0.877. With C18G C85A U145G A147U, the “polymerase ribozyme fitness (log ratio)” value is -0.193. As for C18U A37C G74C G81C, the “polymerase ribozyme fitness (log ratio)” value was not above -4.2.

Consider C18U U90G, for which the “polymerase ribozyme fitness (log ratio)” value was not above -4.2. For C18G G46A G74C U77A U135C the value was not above -4.2; for C18U C51U A89U C96A, -2.24; for A19C A107G, -3.75.

In the case of C18A A30G C38U G48C G71A A89U C96U A97C, the “polymerase ribozyme fitness (log ratio)” value was not above -4.2. For the variant A19C A41C U148C, the “polymerase ribozyme fitness (log ratio)” value was -1.99. For A19C A26C, the “polymerase ribozyme fitness (log ratio)” value is -1.76. Regarding A19C A21C C35U G59U C75U, the “polymerase ribozyme fitness (log ratio)” value was -1.16.

Consider C18G U56G C85U, for which the “polymerase ribozyme fitness (log ratio)” value was -0.856. A19G C35A G42C G68C G92A: the “polymerase ribozyme fitness (log ratio)” value was not above -4.2. For C18U A40U G143C the value was -2.98; for C18U A41C C72U C93G U104G, not above -4.2.

Consider C18U U55G C75U G92C, for which the “polymerase ribozyme fitness (log ratio)” value is -1.73.

For the variant A19C A22U G42U C75G C76A G94A A110U G133U G143U U146G, the “polymerase ribozyme fitness (log ratio)” value was not above -4.2.
